Here are results for 6 proteins from article PMC5405513, “Identification and biochemical characterization of the fructokinase gene family in Arabidopsis thaliana” (BMC Plant Biology, 2017).

What all share (experiment): coupled pyruvate kinase / lactate dehydrogenase assay, NADH oxidation at A340
Holding throughout (type): biochemical, Arabidopsis thaliana
Conditions in all cases: 50 mM Tris pH 7.5, 100 mM KCl, 10 mM MgCl2, 1 mM fructose, 10 mM phosphate, Michaelis-Menten fit

Substrate in series [1]: Nc1ncnc2c1ncn2[C@@H]1O[C@H](COP(=O)(O)OP(=O)(O)OP(=O)(O)O)[C@@H](O)[C@H]1O
From the text:
coupled pyruvate kinase / lactate dehydrogenase assay, NADH oxidation at A340 on FRK5

Substrate in series [2]: Nc1ncnc2c1ncn2[C@@H]1O[C@H](COP(=O)(O)OP(=O)(O)OP(=O)(O)O)[C@@H](O)[C@H]1O
From the text: coupled pyruvate kinase / lactate dehydrogenase assay, NADH oxidation at A340 on FRK2
This is another data set of the same source.

Substrate in series [3]: Nc1ncnc2c1ncn2[C@@H]1O[C@H](COP(=O)(O)OP(=O)(O)OP(=O)(O)O)[C@@H](O)[C@H]1O
From the text:
coupled pyruvate kinase / lactate dehydrogenase assay, NADH oxidation at A340 on FRK1
This is another data set of the same source.

Substrate in series [4]: Nc1ncnc2c1ncn2[C@@H]1O[C@H](COP(=O)(O)OP(=O)(O)OP(=O)(O)O)[C@@H](O)[C@H]1O
From the text: coupled pyruvate kinase / lactate dehydrogenase assay, NADH oxidation at A340 on FRK4
The source holds these as a separate data set.

Substrate in series [5]: Nc1ncnc2c1ncn2[C@@H]1O[C@H](COP(=O)(O)OP(=O)(O)OP(=O)(O)O)[C@@H](O)[C@H]1O
From the text:
coupled pyruvate kinase / lactate dehydrogenase assay, NADH oxidation at A340 on FRK3
This is another data set of the same source.

Substrate in series [6]: Nc1ncnc2c1ncn2[C@@H]1O[C@H](COP(=O)(O)OP(=O)(O)OP(=O)(O)O)[C@@H](O)[C@H]1O
From the text:
coupled pyruvate kinase / lactate dehydrogenase assay, NADH oxidation at A340 on FRK6
The source holds these as a separate data set.

B1: FRK5 (Arabidopsis thaliana) (protein)
chain: MASSTGEKGLIVSFGEMLIDFVPTVSGVSLSESPGFLKAPGGAPANVAIAVSRLGGRAAFVGKLGDDDFGHMLAGILRKNGVDDQGINFDEGARTALAFVTLRSDGEREFMFYRNPSADMLLRPDELNLELIRSAKVFHYGSISLITEPCRSAHMKAMEVAKEAGALLSYDPNLREPLWPSPEEARTQIMSIWDKADIIKVSDVELEFLTENKTMDDKTAMSLWHPNLKLLLVTLGEKGCTYFTKKFHGSVETFHVDAVDTTGAGDSFVGALLQQIVDDQSVLEDEARLRKVLRFANACGAITTTKKGAIPALPTDIEALSFLKDQKKRQTNLKFSKWCCTASPC
For B1, in series [1], the Km (commonly the substrate concentration at which the rate is half of its maximum) amounted to 180 ± 57 µM and the kcat (in general, the maximal rate divided by the concentration of active sites) was determined as 4.8 s⁻¹.

B2: FRK2 (Arabidopsis thaliana) (protein)
chain: MASNGDKGLIVSFGEMLIDFVPTESGVSLAEAPGFLKAPGGAPANVAIAVSRLGGRSAFVGKLGDDEFGHMLAGILRKNGVDDQGINFDTGARTALAFVTLRADGDREFMFYRNPSADMLLRPDELNLDLIRSAKVFHYGSISLIVEPCRSAHLKAMEVAKEAGALLSYDPNLREPLWPSKEEAKTQIMSIWDKAEIIKVSDVELEFLTGSNKIDDETALTLWHPNLKLLLVTLGEKGCRYYTKTFKGAVDPFHVNAVDTTGAGDSFVGALLNQIVDDRSVLEDEERLRKVLRFANACGAITTTKKGAIPALPSDAEVRSFLEKK
In the case of B2, in series [2], the Km turned out to be 85 ± 8.7 µM and the kcat amounted to 10.3 s⁻¹.

B3: FRK1 (Arabidopsis thaliana) (protein)
chain: MGEDAISGNLKNLTIDTRDSETLVVCFGEMLIDFVPTVGGVSLAEAPAFKKAPGGAPANVAVGVSRLGGSSAFIGKVGDDEFGRMLADILRLNNVDNSGMRFDHNARTALAFVTLRGDGEREFLFFRHPSADMLLLESELDKNLIQKAKIFHYGSISLIEEPCRSTQLVAMKIAKAAGSLLSYDPNLRLPLWPSEEAARKEIMSIWNLADVIKISEDEITFLTGGDDPYDDDVVLQKLFHPNLKLLVVSEGPNGCRYYTQEFKGRVGGVKVKPVDTTGAGDAFVSGLLNSLASDLTLLKDEKKLREALLFANACGAITVTERGAIPAMPSMDAVQDLLSSTRS
Turning to B3, in series [3], the Michaelis constant (Km) is 52 ± 7.8 µM and the kcat was determined as 14.2 s⁻¹.

B4: FRK4 (Arabidopsis thaliana) (protein)
chain: MANTPLIVSFGEMLIDFVPDTSGVSLAESTGFLKAPGGAPANVACAITKLGGKSAFIGKFGDDEFGHMLVNILKKNGVNSEGVCFDTNARTALAFVTLKKDGEREFMFYRNPSADMLLKESELNKDLIKKAKIFHYGSISLISEPCRTAHMAAMKTAKDAGVLLSYDPNVRLPLWPSTEAAIEGIKSIWNEADIIKVSDDEVTFLTRGDAEKDDVVLSLMHDKLKLLIVTDGEKGCRYYTKKFKGRVPGYAVKAVDTTGAGDSFVGAFLVSLGKDGSILDDEGKLKEALAFANACGAVCTTQKGAIPALPTPADAQKLMKSKSK
Turning to B4, in series [4], the Km came out at 95 ± 7.9 µM and the turnover number (kcat) was determined as 11.1 s⁻¹.

B5: FRK3 (Arabidopsis thaliana) (protein)
chain: SNLKGRALSSDGSTQESPYVVCFGEMLIDFVPTTSGLSLADAPAFKKAPGGAPANVAVGIARLGGSSAFIGKVGEDEFGYMLANILKDNNVNNDGMRFDPGARTALAFVTLTNEGEREFMFYRNPSADMLLEESELDFDLIKKAKIFHYGSISLITEPCKSAHISAAKAAKEAGVILSYDPNLRLPLWPSADNAREEILSIWETADIIKISEEEIVFLTKGEDPYDDNVVRKLFHPKLKLLLVTEGPEGCRYYTKDFSGRVHGLKVDVVDTTGAGDAFVAGILSQLANDLSLLQDEERLREALMFANACGALTVKVRGAIPALPTKEAVHEALLKAVV
In the case of B5, in series [5], the Michaelis-Menten constant (Km) stood at 52 ± 9.8 µM and the turnover number (kcat) came out at 14.3 s⁻¹.

B6: FRK6 (Arabidopsis thaliana) (protein)
chain: MTSSNGDNKGLVVSFGEMLIDFVPTESGVSLSESSGFLKAPGGAPANVAIAVSRLGGRAAFVGKLGDDEFGHMLAGILRKNDVDDQGINFDKGARTALAFVTLRSDGEREFMFYRNPSADMLLRPDELNLELIRSAKVFHYGSISLITEPCRSAHMKAMEVAKEAGALLSYDPNLREPLWPSPEEARKQIMSIWDKADIIKVSDVELEFLTGNKTIDDETAMSLWHPNLKLLLVTLGENGCRYYTKDFHGSVETFHVDAVDTTGAGDSFVGALLNQIVDDQSVLEEEERLRKVLRFANACGAITTTKKGAIPALPTDCEALSFLKIQVE
For the protein B6, in series [6], the Km was determined as 160 ± 21 µM and the turnover number (kcat) was 12.8 s⁻¹.
